Substitutions are numbered along the chain they refer to. In names and notes the source's numbering stands.
Assays:
[1] = target: the molecule itself; test: crystal structure
[2] = target: the molecule itself; test: SEC
[3] = target: the molecule itself; test: crystal structure; remark: listed apart in the source

B1: Escherichia coli threonine dehydratase (IlvA), full length, His-tagged (enzyme, UniProt P04968 1-514, looked up)
chain: MADSQPLSGAPEGAEYLRAVLRAPVYEAAQVTPLQKMEKLSSRLDNVILVKREDRQPVHSFKLRGAYAMMAGLTEEQKAHGVITASAGNHAQGVAFSSARLGVKALIVMPTATADIKVDAVRGFGGEVLLHGANFDEAKAKAIELSQQQGFTWVPPFDHPMVIAGQGTLALELLQQDAHLDRVFVPVGGGGLAAGVAVLIKQLMPQIKVIAVEAEDSACLKAALDAGHPVDLPRVGLFAEGVAVKRIGDETFRLCQEYLDDIITVDSDAICAAMKDLFEDVRAVAEPSGALALAGMKKYIALHNIRGERLAHILSGANVNFHGLRYVSERCELGEQREALLAVTIPEEKGSFLKFCQLLGGRSVTEFNYRFADAKNACIFVGVRLSRGLEERKEILQMLNDGGYSVVDLSDDEMAKLHVRYMVGGRPSHPLQERLYSFEFPESPGALLRFLNTLGTYWNISLFHYRSHGTDYGRVLAAFELGDHEPDFETRLNELGYDCHDETNNPAFRFFLAG
modifications: PLP covalently bound to Lys62
[1]
  stoichiometry N: 4

B2: Escherichia coli IlvA regulatory domain (amino acids 335-514) (domain or fragment, UniProt P04968 335-514, looked up)
chain: EQREALLAVTIPEEKGSFLKFCQLLGGRSVTEFNYRFADAKNACIFVGVRLSRGLEERKEILQMLNDGGYSVVDLSDDEMAKLHVRYMVGGRPSHPLQERLYSFEFPESPGALLRFLNTLGTYWNISLFHYRSHGTDYGRVLAAFELGDHEPDFETRLNELGYDCHDETNNPAFRFFLAG
[2]
  stoichiometry N: 2

B3: Escherichia coli IlvA regulatory domain (335-514) F352A mutant (domain or fragment, UniProt P04968 335-514, looked up)
chain: B2 chain with F18A
[3]
  stoichiometry N: 2

B4: Staphylococcus aureus threonine dehydratase (IlvA), full length (residues 1-422) (enzyme, UniProt Q2FF63 1-422, looked up)
chain: MTVKTTVSTKDIDEAFLRLKDIVKETPLQLDHYLSQKYDCKVYLKREDLQWVRSFKLRGAYNAISVLSDEAKSKGITCASAGNHAQGVAYTAKKLNLNAVIFMPVTTPLQKVNQVKFFGNSNVEVVLTGDTFDHCLAEALTYTSEHQMNFIDPFNNVHTISGQGTLAKEMLEQAKSDNVNFDYLFAAIGGGGLISGISTYFKTYSPTTKIIGVEPSGASSMYESVVVNNQVVTLPNIDKFVDGASVARVGDITFEIAKENVDDYVQVDEGAVCSTILDMYSKQAIVAEPAGALSVSALENYKDHIKGKTVVCVISGGNNDINRMKEIEERSLLYEEMKHYFILNFPQRPGALREFVNDVLGPQDDITKFEYLKKSSQNTGTVIIGIQLKDHDDLIQLKQRVNHFDPSNIYINENKMLYSLLI
[2]
  stoichiometry N: 8

B5: Staphylococcus aureus IlvA regulatory domain (residues 336-422) (domain or fragment, UniProt Q2FF63 336-422, looked up)
chain: EMKHYFILNFPQRPGALREFVNDVLGPQDDITKFEYLKKSSQNTGTVIIGIQLKDHDDLIQLKQRVNHFDPSNIYINENKMLYSLLI
[2]
  stoichiometry N: 4
